Reference: PMC9603416

Biological target: T1, RR07-6xHis (Streptococcus pneumoniae R6) (UniProt Q8DRF5)
T1 sequence: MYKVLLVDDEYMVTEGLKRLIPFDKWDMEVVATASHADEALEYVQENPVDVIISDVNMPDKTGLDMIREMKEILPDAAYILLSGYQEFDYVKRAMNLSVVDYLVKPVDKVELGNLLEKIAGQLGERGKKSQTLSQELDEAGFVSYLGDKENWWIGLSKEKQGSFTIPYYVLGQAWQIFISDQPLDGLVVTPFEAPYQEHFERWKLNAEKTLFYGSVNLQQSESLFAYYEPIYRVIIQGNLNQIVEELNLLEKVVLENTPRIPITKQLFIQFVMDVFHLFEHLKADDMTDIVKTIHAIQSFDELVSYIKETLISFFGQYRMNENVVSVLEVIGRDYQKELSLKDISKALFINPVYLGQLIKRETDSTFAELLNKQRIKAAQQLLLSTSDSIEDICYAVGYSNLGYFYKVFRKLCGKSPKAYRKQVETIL
Assay: EMSA
Settings: EMSA: 1 nM dsDNA probe, increasing RR07, binding buffer 20 mM Tris-Cl (rest of the buffer, pH and temperature not in the material)

Row | Sequence | binding
1 | CACTGGTCTGGGGCACAAAGTAATTCATCCCAAAAGGCACGCCTGTGTATGGCAGGGTATTTCCCCGAGAGAAGGCATGCTTGCTAGCAGTACCAAAGCGGGTATCGATGGTTTCAAGTAGTGGTTTCATAGTCTTTCCTTTAGCTGTTTTTCTACATTATATCAGAAAAAGAGGGCCTTTAGAAAAGGAGTTTTAAAGATAACTATTTTGTAGAAAAATGACTATCATTTGTGTATGTATTTTCTGTCTCAAAAGCTATATACTGAACATGAAACTTGTTTGAAAGAGGGAATTGCACG (double strand) [Pgh125] | no binding
2 | TGCAAAACCTCCTGATTGCATTGTTATATTGATAGCGATTATATAAATCAACGCCTTTATTTTATTTCTTATATTAACGAGAGTCAAGAGGAGATGACAAAAAACTATAATAAGTATAAAAAAATATAAAATTTAAACTTAAGATTTCAGATTGGTCGAAAAAATACATATATATATCTAGTATAATTTTTGGTTCTATTTCTATAAAATATTCCACAAATTATAGAATCTTCCAAAAATAGGTAAGCGCTACCTTTTTGGTGTGGTATAATAAGC (double strand) [PstrH] | no binding
